Results as given in the DeepSol protein solubility set.

assay: soluble on expression in E. coli; label from the status in PepcDB or PDB records

Soluble on expression in E. coli, not soluble:
MGSDKIHHHHHHMALLDIRNLCIEIETPKGRVKIIDNVNLTLNEGEICGLVGESGSGKSLIAKVICNAIKDSWIITADRFRFDDVELLKLNPKKRRKLVGKEISMIYQEPLASLDPSRKIGQQLIQSIPSWTFKGRWWQWFGWKKRRAIELLHRVGVKDHKDIMQSYPHEVTEGEGQKIMIALAIANQPRLLIADEPTNSLESMTKVQIFRLLASMNQNQGTSILLVSNDINSISAWCDSFSVLYCGQNAESGSKENILENPHHPYTRALLHSIPDFKQPLVHKSRLSTLKGAVPLLEGMPIGCRLGPRCPFAQKECIRKPTAQRIKQHEFFCHFPINLKESQRREKEMETGPLVVNTTK
MGSDKIHHHHHHMALPSLNGMRAFEAAARLGSIKDAAEELHLTPSAISRHIRALERNLGQDLFERGFRQITPTIRGSYYARSLSEAFEAIWRATDDVSLADGPSHGRTQRVRVLCVPAVLNLWLADRLPNFRRLHPAVELEISTSGKRANFDLAIVDEFVYKAGPALTLLIPLVLTPVCAPSLLDGPVPLRSPADLVNHHLIHECESMRWKRWLEQEGVLDTTPKSSTTLDDCTLIMREAINGAGIALADTMMAQDFLQQGKLVAPFPARHTYPAGIYLHQRRSIGNKPGTGLFQDWLLSEVEDHKRVMAIA
MGSDKIHHHHHHMANEATQELFQVLDNTAIILQNELEISYLEAVYETGENLFQKEVLQKEELSSEKQLKLQESYESIELENFSNEEIRKGLQLALLKGMKHGIQVNHQMTPDSIGFIVAYLLEKVIQKKKNISILDPACGTANLLTTVINQLELKGDVDVHASGVDVDDLLISLALVGADLQRQKMTLLHQDGLANLLVDPVDVVISDLPVGYYPDDENAKTFELCREEGHSFAHFLFIEQGMRYTKPGGYLFFLVPDAMFGTSDFAKVDKFIKKNGHIEGIIKLPETLFKSEQARKSILILRKADVNVKPPKEVLLANLSSLTDPSVTAPILAEIENWFKSKQ
MGSDKIHHHHHHMANSGQIRVGIGGWNFEPWEGTFYPDDLPKKRQLEFAGKELRTIEVNGTYYSSQKPATFAKWAAEVPDGFIFSLKASRFVTNRRVLSEAGESMERFLTQGLTELGDRLGPILWQFAPTKKFDAEDFEGFLKLLPEKQDGLKLRHVVEVRNPSFQVPDFVKLIEKYKVAVVLAEHADYPMIADVTGDFVYARLQKGSDEVKTCYPPKDLDRWAERLKTFAAGGEPDDLEKAAPERQPETAPRDVFAFFITSGKVNAPNGARELQKRVG
MGSDKIHHHHHHMARANRHYIPGQVWHITHRCHKKEFLLKFARDRRRWLHWLFEAKKRFGLQVLNYAVTSNHVHLLVVDTKPEVVAKSIQLIAGRTAQEFNQRKDRKGAFWEDRYHATAIERNEHLVRCLVYIDLNMVRAGVVTHPAEWEMNGYNEIQNPPDRYAIIDRHSLFDACGFPDYGSFAEQHRKWVEDALKKGMNREGHWTESIAVGSSAFITDTQRKMGCSAKGRKLEEQVDGASFLREDAEPYHAHFTGKSEVLSPENAFFWDDYDVVPVG
MGSDKIHHHHHHMARQFVYFMQGLTKAYPTRKVLDNVHLSFYPDAKIGVLGVNGAGKSTLLKIMAGIDKEYTGEAWVAEGARVGYLEQEPQLDPALTVRENVMLGVAKQKAILDRYNELAMNYSEETADEMTALQDQIESAGLWDLDSKVDQAMDALRCPPDDADVTKLSGGERRRVALCKLLLDQPDLLLLDEPTNHLDAESVSWLESHLRNYPGAILIVTHDRYFLDNVTSWILELDRGRGIPYEGNYSSWLVQKQKRLLQEGREDAAHQKTLEREQEWIASSPKARQAKSKARYQRYEELLAKASEKQTQTAQIIIPVAERLGNNVVDFEHLTKGFGDKLLIDDLTFKLPPGGIVGVIGPNGAGKTTLFRMITGQEKPDQGTITVGETVHLGYVDQSRDSLDAKKTVWEEISGGNELILLGKKEVNSRGYCSAFNFKGGDQQKKVGSLSGGERNRVHLAKMLKSGANVLLLDEPTNDLDVDTLRALEEALEDFAGCAVIISHDRWFLDRIATHILAFEDDSHVEWFEGNFQDYEKDKMRRLGQDAIIPHRAKYKKLTR
MGSDKIHHHHHHMARYSKKMKLLINTPSLKFLGGGVANHYIGLRTFWTENVKYNVVGRRGGKSGSGKYWLPWDIFKFIFRLLTFRPNIILLNPSLGDKALKRDFIYLNICRFFRKKTSVFIHGFNFEYAKNADWKWISTNLNKALCIFVLSQEFKNELIRRGVKSDIHLTSTKVPDYFISGFDLSMRQGKAKNIMYSGRIEKAKGVYETVDTFSILKSQYKDLTLTFVGDGSELPKLKQYVENKKIKDVRFTGRLCGEDFKKEYINADMYLFLSYTEGMPTVVLEAMIFGLPIFTRKVGGLIDFFENGKMGYISSSLDPVVFAEAMKPYIESSAKMKSVSLYNSEYARTHFIASVVARKFENTLNYEYFKNQEHREH
MGSDKIHHHHHHMASHLTDGVIHATTRAASLHWCIAQATKTDGALNGDGYLLKRDEDTLLFALADGVGSGQLAHDASSACLRILAASDDMDLPSLFETCHTQLTSTRGAALGLVKFFLGQGFLEWAAVGDIEGCIYPTEPTSSRTISMMQRGGTLGHYFTGITPQQHAWPPTSMLALCTDGVSRKFRERHPNDQAPREFADSCFNDFGRDNDDRTLATFSWTQEGT
MGSDKIHHHHHHMASKNFVLDTNVLIENPRCIAALRNGEENRIHVPWTVLAELDGLQRDPRIGHVVGQAINALVGDEAVTFLPPLADDVAPSPGTIGDDRILGEIASSALESPILITNDRILQLKARVRGIPVEGYRDSVPFQSESQRYTGFVMDGEDPVPNCFRWENGQPVFHGPDGPRAVTWQHEVWKVAPRSVHQNLAFELMLHPGIDIVSIQSEAGYGKTFLALAAALHLVFERKDTPYRKIYLVKPVVEIGARMGFLPGDIEEKMHPYIRYVQDLLLKLHDLRPANRVFQSVEAGNMKLNPKRFEIQPIAYVRGMNLENAVVIIDEMQNLSRNEARALLTRMGEGVKCFCLGDTRQVDNQYLNESNNGLNWVVKKLKGFRNYAHIVLKGERSRGPITDIVLRSRL
MGSDKIHHHHHHMASVMSNNNNNNNNNNASYMFTNPLSNTGGGLINEIKDAINEMEQLKVLELKQICKSLDLSITGKKAVLQDRIKQFLRKSCDIGHIDPWRPKAIKILIAKVRINSSLPKYSTLWETLKTGAFKHPVASGQLPVTALQSTALPPYSQQQALAYSFTSPFYKPIVQIPDANKKLKQSAGRGCTKMKFKVSKSNHDLLKSNKSYKLYLFSGFSIPFIYETVGHEAIDFPYPCELVFNGTKLEDNVKGLKKQNGTGNPANLTPYLKVPTEMNHLDLHYLNIDKEYSISCFIVEVFSPEALLGKILKRPKIIKQATTAYIKRTLNEQDDDDIITTSTVLSLQCPISCTRMKYPAKTDQCKHIQCFDALWFLHSQSQVPTWQCPICQHPIKFDQLKISEFVDNIIQNCNEDVEQVEISVDGSWKPIHNSSAVITDTVNQNHSVKNENQGTVKQEQDYDSRNAFDTNLRNGSNHNEPEIISLDSSDDEAFIPASKSFPTHVNPRNDQLRADIFPSESEGSSDYNPNHTSTPKGSPTMDQDNYQDAFQMRSFLNQGATTNINDTPTNNSSINSFVTATNGDSRIFYNRGPSTPLLPAVLQNLTNQTEAQRNPYGPNYNTTAQDRNLLGIEGDLPPIPPVDPNSEAETELPTRTTSAAHLPPYIHVSTSGHGDDGKIRKRRHSNVSIYIPKNPYATLMKRRPQANHAIMNKTLAQTNDFNTSAQDNSEVVDLTSD
MGSDKIHHHHHHMATMMMNDMAARGLRVGLLTWDPEDATAHYPMDPAITWMKLAMGEASQRAGWGLRLRRQRAIRRLARGFRPDVVIGFQAGAFIALRTALVGLGIPMIAAERNAPDLYDFLRQGVRARRMTELALATASRITVQLPSYRPRYPAFLRRRIVDIPNPVPALAEPPYPNEAADPPRLILNMGRLSYQKNQAFLLRAFARVAPTHPEWTLAFVGDGDAGATLKALCHELDLDDRVLFPGATRDVGAWYARSAFLAFPSLWEGFPNALVEAFAHGLPAVGLRTTSGVNELIVEGETGLLSAPDEGAFAEALARMIRDDEARREMGRKAARSILAYDPKAIFDRWEALFRAVAKRRSAP
